Ends that are not written are not given here.
How the values were obtained:
VPAC1R = biological target: T1, VPAC1R (Homo sapiens, UniProt P32241); test: In vitro measurement of cAMP activation in HDMEC; format: cell-based
T1 construct: To confirm that HDMEC express functional VPAC1R, we kept HDMEC in FCS/nutrient deficient medium for 24 h; endogenous in cells; host or cells: HDMEC (human dermal microvascular endothelial cells)
T1 sequence (P32241 31-457): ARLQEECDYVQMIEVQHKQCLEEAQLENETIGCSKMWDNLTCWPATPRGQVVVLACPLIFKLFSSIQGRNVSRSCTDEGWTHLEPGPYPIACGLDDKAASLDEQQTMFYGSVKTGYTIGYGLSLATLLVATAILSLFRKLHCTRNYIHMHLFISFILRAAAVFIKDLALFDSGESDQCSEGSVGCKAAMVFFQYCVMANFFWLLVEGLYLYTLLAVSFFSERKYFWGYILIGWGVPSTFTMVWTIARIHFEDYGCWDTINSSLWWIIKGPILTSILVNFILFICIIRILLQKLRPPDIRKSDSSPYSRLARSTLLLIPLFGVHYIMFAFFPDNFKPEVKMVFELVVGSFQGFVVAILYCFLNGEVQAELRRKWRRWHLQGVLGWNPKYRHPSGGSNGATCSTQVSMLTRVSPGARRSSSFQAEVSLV
Protocol: For example, Human Dermal Microvascular Endothelial cells (HDMEC) can be grown in endothelial cell growth medium. Lyophilized PACAP1-38 can be diluted in the appropriate volume of HDMEC assay medium immediately prior to use. IBMX (3-Isobutyl-1-Methylxanthin) can be added to the medium as a phosphodiesterase inhibitor in order to measure all the intracellular built cAMP after receptor stimulation without the intrinsic phosphdiesterase cleaving some of it. After 24 h cells can be harvested and extracted with 65% ethanol in PBS which can be lyophilized and the cAMP concentration can be examined using a cAMP EIA-direct assay (Amersham Pharmacia Biotech).
Pretreatment with antagonist was 3 min before agonist stimulation. […] Experiments were performed at least three times). IBMX (3-Isobutyl-1-Methylxanthin; 4 mM) was added to the medium as a phosphodiesterase inhibitor in order to measure all the intracellular built cAMP after receptor stimulation without the intrinsic phosphodiesterase cleaving some of it.

HDMEC = test: ELISA for NO release by HDMEC; format: cell-based, human
Source text: In an alternative approach, the determination of the activity of PACAP signalling pathway can be carried out using an Enzyme-Linked Immunosorbent Assay (ELISA) for nitric oxide (NO) production in HDMEC. To study cytokine release by HDMEC after PACAP stimulation, cells can be stimulated as described above and supernatants can be collected and frozen until use for ELISA assays. For the detection of NO release, NO-ELISA kits, for example from BioSource Int. can be used.
PACAP-induced release of NO in HDMEC. After finding that HDMEC express functional VPAC1R and that VPAC1R is the crucial receptor in human skin epithelium on the protein level, we examined whether PACAP is capable of releasing NO from HDMEC at similar concentrations. Therefore, we performed specific ELISAs with supernatants collected at time-points between […] (FIG. 12). Indeed, PACAP (10^−9 M) induced the release of NO (582%+/−25) by HDMEC as compared to control with a maximal effect at 15 min.

human skin [1] = test: Flush phenomenon (erythema, edema) in volunteers after intravenous PACAP1-27; format: in vivo
Protocol: B) Flush phenomenon in a probationer after intravenous application of PACAP1-27. Note cutaneous erythema and facial as well as a marked periorbital edema 30 min after application). […] The approximate duration when first signs of a “flush” occurred were 46.03±5.3 min with 100 pmol/kg b.w./h PACAP1-27. The erythema persisted approximately for 6 h.

human skin [2] = test: Skin temperature (ST) in human volunteers before and after intravenous peptide application; format: in vivo
Protocol: First, the skin temperature (ST) was measured in different human body regions before and after continuous intravenous application of 100 pmol/kg b.w./h PACAP1-27. Under basal conditions a ST of 33.51±0.25° C. was measured at 0 min. Differences of ST [ΔT(° C.)] were measured after 5, 15, 30, 45, 60 min (FIG. 1: Changes in skin temperature [ΔT(° C.)] as compared to basal (0=33.51±0.25° C.) before and after continuous infusion of 100 pmol/kg b.w./h PACAP1-27 Mean±SEM, *=p<0.05 (n=10)). […] This increase persisted even after 30 min although less dramatic (+1.8° C.±0.26). […] This PACAP-induced effect in human skin was dose-dependent (FIG. 2: Changes in skin temperature [ΔT(° C.)] as compared to basal after continuous infusion of 7.5, 15, or 30 pmol/kg b.w./h PACAP1-27. Mean±SEM, *=p<0.05 (n=9). Mean time until first flush symptoms occurred was 46.03±5.30 min.). […] Next, ST was measured in different body regions before and after a bolus injection of […] PACAP1-27. […] Changes in skin temperature [ΔT(° C.)] as compared to basal ([…]=33.51±0.25° C.) under different conditions of continuous infusion and concentrations (◯=1 μg/kg b.w./h PACAP1-27; o=100 pmol/kg b.w./h). Mean±SEM, *=p<0.05 (n=10)). […] Mean±SEM, *=p<0.05 (n=7)).

[3] = Systemic parameters: pulse and blood pressure RR syst./diast. during PACAP infusion; format: in vivo, human
Source text: To test whether these prominent effects in human skin (erythema, edema) and difference in skin temperature [ΔT(° C.)] were due to a local vascular effect and not due to a secondary systemic effect we measured systemic parameters such as pulse (B/min) and blood pressure RR syst./diast. (mm Hg). […] Thus, PACAP-induced changes are most likely due to a local effect in cutaneous vasculature.

[4] = 30 min, change from 7.5 to 15 pmol/kg/h
[5] = 60 min, change from 15 to 30 pmol/kg/h

Substance: PACAP6-27 (FTDSYSRYRKQMAVKKYLAAVL; ends and bridges not checked; UniProt P18509 137-158, looked up, fragment)
- effect on agonist-induced cAMP activation (VPAC1R; 10^-7 M (100× the agonist), pretreatment 3 min before agonist): cut in half
- PACAP-induced NO release after antagonist preincubation (value in brackets) (HDMEC; preincubation before PACAP): 79+/−22
- effect of preincubation on PACAP-induced NO release (HDMEC; preincubation before PACAP): slightly enhanced
- NO release when TNFa was incubated with the antagonist (HDMEC; with TNFa): significantly lower

Substance: PACAP1-27
- approximate duration when first signs of a flush occurred (human skin [1]; 100 pmol/kg b.w./h): 46.03 ± 5.3 min
- mean time until first flush symptoms occurred (human skin [1]; FIG. 2: continuous infusion of 7.5, 15, or 30 pmol/kg b.w./h, n=9): 46.03 ± 5.30 min
- persistence of erythema (human skin [1]; after i.v. application): ~6 h
- erythema (flushing) and edema compared to control injections (human skin [1]; all participants, bolus and continuous infusion): significant development of erythema (flushing) and edema
- healthy volunteers in whom the effect was dominant in the face and upper trunk (human skin [1]; i.v. application): nine out of ten
- increase of skin temperature, bolus versus continuous infusion (human skin [2]; bolus 1 μmol/kg b.w./h compared with continuous 100 pmol/kg b.w./h): significantly higher increase of ST
- maximum increase of skin temperature ΔT vs basal (human skin [2]; bolus injection 1 μmol/kg b.w./h, maximum after 30 min, n=8): 2.7 °C
- skin temperature course after bolus (human skin [2]; bolus injection, after 60 min): slight decrease of ST
- skin temperature compared to basal (human skin [2]; bolus injection, after 120 min): still elevated
- increase of skin temperature ΔT vs basal (human skin [2]; continuous i.v. 100 pmol/kg b.w./h, after 5 min, n=10, mean±SEM): 1.2 °C
- increase of skin temperature ΔT vs basal (human skin [2]; continuous i.v. 100 pmol/kg b.w./h, after 30 min, n=10, mean±SEM): 1.8 °C
- further increase of skin temperature compared to 30 min (human skin [2]; continuous i.v. 100 pmol/kg b.w./h, between 30 and 60 min): no significant increase of ST
- increase of skin temperature ΔT vs basal (human skin [2]; i.v. infusion 7.5 pmol/kg b.w./h over 30 min, n=9): 1.25 °C
- increase of skin temperature ΔT vs basal (human skin [2]; i.v. infusion 15 pmol/kg b.w./h, n=9): 2.1 °C
- increase of skin temperature ΔT vs basal (human skin [2]; i.v. infusion 30 pmol/kg b.w./h, n=9): 2.4 °C
- skin temperature after stop of infusion (human skin [2]; immediately after infusion of 30 pmol/kg b.w./h was stopped): slowly decreased

Substance: vasoactive intestinal peptide (HSDAVFTDNYTRLRKQMAVKKYLNSILN; ends and bridges not checked; UniProt P01282 125-152, looked up) [VIP1-28]
- increase of skin temperature vs basal (human skin [2]; i.v. infusion 20 pmol/kg b.w./h, n=7): did not result in a significant increase of ST
- increase of skin temperature ΔT vs basal (human skin [2]; i.v. infusion 100 pmol/kg b.w./h, maximum after 60 min, n=7): 1.36 °C

Substance: Pituitary adenylate cyclase activating polypeptide [PACAP]
- cAMP activation compared to the negative control (VPAC1R; 10^−9 M, IBMX 4 mM): more than 4 fold
- activation of VPAC1R in HDMEC (cAMP) (VPAC1R; FIG. 10): dose-dependent activation
- release of NO as compared to control (HDMEC; 10^−9 M): 582%
- time of maximal effect on NO release (HDMEC; 10^−9 M): 15 min
- NO release on incubation together with TNFα, versus TNFα alone (HDMEC; with TNFα): additive effect
- R diastol. ([3]; 5 min, infusion 7.5 pmol/kg/h): 72 ± 4 mmHg
- R systol. ([3]; 5 min, infusion 7.5 pmol/kg/h): 107 ± 4 mmHg
- pulse ([3]; 5 min, infusion 7.5 pmol/kg/h): 64 ± 3 B/min
- R diastol. ([3]; 15 min, infusion 7.5 pmol/kg/h): 75 ± 3 mmHg
- R systol. ([3]; 15 min, infusion 7.5 pmol/kg/h): 109 ± 4 mmHg
- pulse ([3]; 15 min, infusion 7.5 pmol/kg/h): 66 ± 4 B/min
- R diastol. [3, 4]: 75 ± 3 mmHg
- R systol. [3, 4]: 111 ± 5 mmHg
- pulse [3, 4]: 68 ± 3 B/min
- R diastol. ([3]; 35 min, infusion 15 pmol/kg/h): 74 ± 4 mmHg
- R systol. ([3]; 35 min, infusion 15 pmol/kg/h): 111 ± 5 mmHg
- pulse ([3]; 35 min, infusion 15 pmol/kg/h): 69 ± 3 B/min
- R diastol. ([3]; 45 min, infusion 15 pmol/kg/h): 74 ± 4 mmHg
- R systol. ([3]; 45 min, infusion 15 pmol/kg/h): 111 ± 5 mmHg
- pulse ([3]; 45 min, infusion 15 pmol/kg/h): 73 ± 4 B/min
- R diastol. [3, 5]: 74 ± 3 mmHg
- R systol. [3, 5]: 111 ± 5 mmHg
- pulse [3, 5]: 69 ± 3 B/min
- R diastol. ([3]; 65 min, infusion 30 pmol/kg/h): 74 ± 3 mmHg
- R systol. ([3]; 65 min, infusion 30 pmol/kg/h): 109 ± 5 mmHg
- pulse ([3]; 65 min, infusion 30 pmol/kg/h): 71 ± 3 B/min
- R diastol. ([3]; 75 min, infusion 30 pmol/kg/h): 74 ± 3 mmHg
- R systol. ([3]; 75 min, infusion 30 pmol/kg/h): 110 ± 5 mmHg
- pulse ([3]; 75 min, infusion 30 pmol/kg/h): 72 ± 2 B/min
- R diastol. ([3]; 90 min (end of infusion)): 72 ± 4 mmHg
- R systol. ([3]; 90 min (end of infusion)): 109 ± 5 mmHg
- pulse ([3]; 90 min (end of infusion)): 69 ± 3 B/min
- R diastol. ([3]; 100 min, after end of infusion): 73 ± 4 mmHg
- R systol. ([3]; 100 min, after end of infusion): 109 ± 5 mmHg
- pulse ([3]; 100 min, after end of infusion): 66 ± 4 B/min
- R diastol. ([3]; 110 min, after end of infusion): 72 ± 4 mmHg
- R systol. ([3]; 110 min, after end of infusion): 109 ± 4 mmHg
- pulse ([3]; 110 min, after end of infusion): 68 ± 4 B/min
- R diastol. ([3]; 120 min, after end of infusion): 74 ± 3 mmHg
- R systol. ([3]; 120 min, after end of infusion): 112 ± 4 mmHg
- pulse ([3]; 120 min, after end of infusion): 71 ± 4 B/min
- differences in RR syst./diast. or pulse ([3]; during and after infusion): No measurable differences

— patent publication US20110229423A1 (Galderma Research & Development, priority 2008, published 2011)
